{
  "source": "paper PMC10970614",
  "origin": "cited, not measured here",
  "key": {"[1]": {"molecular_target": "glycophorin (Homo sapiens) (UniProt P02724)"}, "[2]": {"molecular_target": "integrin alpha L cytoplasmic domain (Homo sapiens) (UniProt P20701)", "sequence (P20701 1112-1170)": "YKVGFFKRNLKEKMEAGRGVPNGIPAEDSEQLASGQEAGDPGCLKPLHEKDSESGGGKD", "assay": "SPR"}, "[3]": {"molecular_target": "integrin alpha M cytoplasmic domain (Homo sapiens) (UniProt P11215)", "sequence (P11215 1129-1152)": "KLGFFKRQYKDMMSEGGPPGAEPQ", "assay": "SPR"}, "[4]": {"molecular_target": "integrin alpha X cytoplasmic domain (Homo sapiens) (UniProt P20702)", "sequence (P20702 1129-1163)": "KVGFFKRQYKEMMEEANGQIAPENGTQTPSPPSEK", "assay": "SPR"}, "[5]": {"molecular_target": "integrin beta 2 cytoplasmic domain (Homo sapiens) (UniProt P05107)", "sequence (P05107 724-769)": "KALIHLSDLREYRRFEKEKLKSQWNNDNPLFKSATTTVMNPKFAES", "assay": "SPR"}, "[6]": {"molecular_target": "integrin beta 3 cytoplasmic domain (Homo sapiens) (UniProt P05106)", "sequence (P05106 742-788)": "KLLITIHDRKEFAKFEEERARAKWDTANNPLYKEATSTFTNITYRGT", "assay": "SPR"}},
  "data": [
    {"substance": "HlyA (from UniProt P08715)", "values": [
      {"measurement": "Kd", "setting": "[1]", "result": 610, "unit": "nM"}
    ]},
    {"substance": "LtxA (from UniProt P16462)", "values": [
      {"measurement": "Kd", "setting": "[2]", "result": 15, "unit": "nM"},
      {"measurement": "Kd", "setting": "[3]", "result": 400, "unit": "nM"},
      {"measurement": "Kd", "setting": "[4]", "result": 180, "unit": "nM"},
      {"measurement": "Kd", "setting": "[5]", "result": 4.2, "unit": "nM"},
      {"measurement": "Kd", "setting": "[6]", "result": 230, "unit": "nM"}
    ]}
  ]
}
